Article doi:10.1101/2020.12.15.422916
Blank lines part the entries; values can stand above or below the substance they belong to.

How the values were obtained:
[1] = biological target: C99-derived hexameric Aβ42 (cell-derived, from CHO cells transfected with C99) (human) (UniProt P05067); assay: SDS-PAGE and western blot of SDS-stable assemblies
[2] = biological target: C99-derived hexameric Aβ42 (cell-derived, from CHO cells transfected with C99) (human) (UniProt P05067); assay: GELFrEE 8100 electrophoretic fractionation with western blot
[3] = biological target: assembly-impaired variant of Aβ42 from CHO cells transfected with vC42 (F19S, G37D) (human); assay: SDS-PAGE and western blot of SDS-stable assemblies
[4] = biological target: hexameric Aβ from CHO cells transfected with C99 carrying the Arctic (E22G) FAD mutation (human); assay: SDS-PAGE and western blot of SDS-stable assemblies
[5] = biological target: hexameric Aβ from CHO cells transfected with C99 carrying the Dutch (E22Q) FAD mutation (human); assay: SDS-PAGE and western blot of SDS-stable assemblies
[6] = biological target: hexameric Aβ from CHO cells transfected with C99 carrying the Flemish (A21G) FAD mutation (human); assay: SDS-PAGE and western blot of SDS-stable assemblies
[7] = biological target: hexameric Aβ from CHO cells transfected with C99 carrying the Iowa (D23N) FAD mutation (human); assay: SDS-PAGE and western blot of SDS-stable assemblies
[8] = biological target: hexameric Aβ from CHO cells transfected with C99 carrying the Italian (E22K) FAD mutation (human); assay: SDS-PAGE and western blot of SDS-stable assemblies

stoichiometry N [1]: 6
stoichiometry N [2]: 6
Substance: C99-derived hexameric Aβ42 (cell-derived, from CHO cells transfected with C99) (from UniProt P05067 672-770) (peptide)

stoichiometry N [3]: 2
Substance: assembly-impaired variant of Aβ42 from CHO cells transfected with vC42 (F19S, G37D) (peptide)

stoichiometry N [4]: 6
Substance: hexameric Aβ from CHO cells transfected with C99 carrying the Arctic (E22G) FAD mutation (peptide)

stoichiometry N [5]: 6
Substance: hexameric Aβ from CHO cells transfected with C99 carrying the Dutch (E22Q) FAD mutation (peptide)

stoichiometry N [6]: 6
Substance: hexameric Aβ from CHO cells transfected with C99 carrying the Flemish (A21G) FAD mutation (peptide)

stoichiometry N [7]: 6
Substance: hexameric Aβ from CHO cells transfected with C99 carrying the Iowa (D23N) FAD mutation (peptide)

stoichiometry N [8]: 6
Substance: hexameric Aβ from CHO cells transfected with C99 carrying the Italian (E22K) FAD mutation (peptide)
